In patent publication US20070020258A1 (published 2007):

Tests used:
[1] = molecular target: T1, human IgE (ND and PS allotypes) (human, UniProt P01854-1 1-428, tracer iodinated with 125I (chloramine T)); assay: 125I-IgE equilibrium binding, Scatchard
T1 construct: IgE used for the Scatchard Kd; also called 125I IgE; unlabelled IgE
Protocol: e. Scatchard analysis was performed utilizing a Fortran program (scanplot) based on the Ligand program written by P. Munson at NIH. Scatplot uses a mass action equation fitting bound as a function of total using the Rodbard type regression analysis.

[2] = molecular target: T2, human IgE purified from U266B1 cells (human, UniProt P01854-1 1-428); assay: IgE/FcεRI inhibition ELISA
T2 construct: domain: Fcε4; Whole IgE; its X residues are spacers that keep Kabat numbering and are not part of the protein; also called U266 IgE; U266 IgE standard
T2 sequence (P01854 other isoform, or with tags, fused parts or gaps): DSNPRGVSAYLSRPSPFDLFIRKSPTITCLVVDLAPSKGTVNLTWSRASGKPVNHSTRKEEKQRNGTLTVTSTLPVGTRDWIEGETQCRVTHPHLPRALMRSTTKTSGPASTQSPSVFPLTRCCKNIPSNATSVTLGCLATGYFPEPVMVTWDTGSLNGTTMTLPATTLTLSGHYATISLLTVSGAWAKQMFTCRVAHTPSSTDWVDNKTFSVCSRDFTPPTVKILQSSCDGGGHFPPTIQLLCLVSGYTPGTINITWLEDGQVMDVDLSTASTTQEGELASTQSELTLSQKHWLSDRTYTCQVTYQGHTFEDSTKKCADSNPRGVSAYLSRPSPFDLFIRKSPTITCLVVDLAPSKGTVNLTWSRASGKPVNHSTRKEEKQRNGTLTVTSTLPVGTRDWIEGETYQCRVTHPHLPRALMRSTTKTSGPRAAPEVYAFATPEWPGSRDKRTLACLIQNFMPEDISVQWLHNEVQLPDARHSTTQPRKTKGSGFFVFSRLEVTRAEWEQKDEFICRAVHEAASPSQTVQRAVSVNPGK
Protocol: A 96-well assay plate (Manufn Nunc.) was coated with 0.05 ml of the FcεRI alpha chain IgG1 chimeric receptor in 1 μg/ml coating buffer ([…] carbonate/bicarbonate, pH 9.6). Assay was done for 12 hours at 4-8° C. The wells were aspirated and 250 μl blocking buffer (PBS-1% BSA pH 7.2) was added and incubated for one hour at 4° C. […] The FcεRI-coated wells were washed three times with PBS-0.05% Tween20, and then 50 μl from the sample wells were transferred and incubated with agitation for 30 minutes at 25° C. 50 μl/well of streptavidin-HRP diluted 1:5000 in assay buffer was incubated for 15 minutes with agitation and then the plate was washed as before. 50 μl/well of Microwell peroxidase substrate (Kirkgaard & Parry Laboratories) was added and color was developed for 30 minutes.

T1 sequence (P01854 other isoform, or with tags, fused parts or gaps): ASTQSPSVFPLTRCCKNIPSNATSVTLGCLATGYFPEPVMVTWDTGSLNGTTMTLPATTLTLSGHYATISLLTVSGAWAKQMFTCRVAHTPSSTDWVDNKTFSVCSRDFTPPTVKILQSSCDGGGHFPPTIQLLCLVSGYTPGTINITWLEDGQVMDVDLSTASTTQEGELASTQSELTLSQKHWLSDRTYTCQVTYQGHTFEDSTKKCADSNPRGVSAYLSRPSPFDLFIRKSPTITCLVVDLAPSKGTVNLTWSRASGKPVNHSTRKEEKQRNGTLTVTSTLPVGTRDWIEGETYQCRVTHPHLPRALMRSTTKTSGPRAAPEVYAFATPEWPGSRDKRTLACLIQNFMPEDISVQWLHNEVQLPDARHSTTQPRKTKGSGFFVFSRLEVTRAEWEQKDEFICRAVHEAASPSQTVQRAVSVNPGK

Kd [1] | ratio Var. X / IgL1H1 [2] | ratio Var. X / MaE11 [2] | Binder
70 nM | – | – | MAE15 (antibody, V domains shown, murine IgG1) VH: DVQHQESEPDLVKPSQSLSLTCTVTGYSITSGYNRHWIRQFPGNKLEWMGYIHYSGSTNYNPSLKRRISITRDTSKNQFFLQLNSVTTEDTATYYCARGSIYYYGSRYRYFDVWGAGTTVTVSS VL: DIQLTQSPASLAVSLGQRATISCKASQSVDYDGDSYMNWYQQKPGQPPKLLIYAASNLESGIPARFSGSGSGTDFTLNIHPVEEEDAATYYCQQSNEDPFTFGAGT
30 nM | 0.06 | 1 | MAE11 (antibody, V domains shown, murine IgG1) VH: DVQLQESGPGLVKPSQSLSLACSVTGYSITSGYSWNWIRQFPGNKLEWMGSITYDGSSNYNPSLKNRISVTRDTSQNQFFLKLNSATAEDTATYYCARGSHYFGHWHFAVWGAGTTVTVSS VL: DIVLTQSPASLAVSLGQRATISCKASQSVDYDGDSYMNWYQQKPGQPPILLIYAASYLGSEIPARFSGSGSGTDFTLNIHPVEEEDAATFYCQQSHEDPYTFGAGTKLEIK
50 nM | – | – | MAE13 (antibody, V domains shown, murine IgG1) VH: DVQLQESGPGLVKPSQSLSLTCTVTGYTITSDNAWNWIRQFPGNKLEWMGYINHSGTTSYNPSLKSRISITRDTSKNQFFLQLNSVTTEDTATYYCAWVVAYAMDYWGQGTSVTVSS VL: DIVMTQSQKFMSTSVGDRVSVTCKASQNVSSNVAWYQQKPGQSPKALIYSASYRYSGVPDRFTGSGSGTDFTLTISNVQSEDLAEYFCQQYYTYPLYTFGGGTKLEIKR
